These results are taken from patent US20140044674A1.

This assay has as its target IL-10R on freshly isolated human blood monocytes (human) (UniProt Q13651). Description: cell-based or functional assay.

Sequence of IL-10R on freshly isolated human blood monocytes (human) (Q13651 22-578, chain 1 of 2): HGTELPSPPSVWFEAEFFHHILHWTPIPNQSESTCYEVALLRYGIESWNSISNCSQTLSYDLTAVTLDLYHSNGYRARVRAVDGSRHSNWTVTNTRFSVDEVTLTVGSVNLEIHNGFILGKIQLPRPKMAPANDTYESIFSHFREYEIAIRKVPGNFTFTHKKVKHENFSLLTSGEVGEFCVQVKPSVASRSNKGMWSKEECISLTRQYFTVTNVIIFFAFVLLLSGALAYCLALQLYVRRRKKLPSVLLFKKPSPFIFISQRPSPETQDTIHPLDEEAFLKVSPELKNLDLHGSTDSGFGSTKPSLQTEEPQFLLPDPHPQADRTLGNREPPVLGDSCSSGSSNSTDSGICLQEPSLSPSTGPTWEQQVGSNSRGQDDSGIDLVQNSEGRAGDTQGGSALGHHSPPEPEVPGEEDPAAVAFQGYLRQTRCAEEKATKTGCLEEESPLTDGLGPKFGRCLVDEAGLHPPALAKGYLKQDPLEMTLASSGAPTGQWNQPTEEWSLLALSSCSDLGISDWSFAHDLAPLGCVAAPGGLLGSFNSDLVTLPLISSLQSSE
Sequence of IL-10R on freshly isolated human blood monocytes (human) (Q08334 20-325, chain 2 of 2, further chain): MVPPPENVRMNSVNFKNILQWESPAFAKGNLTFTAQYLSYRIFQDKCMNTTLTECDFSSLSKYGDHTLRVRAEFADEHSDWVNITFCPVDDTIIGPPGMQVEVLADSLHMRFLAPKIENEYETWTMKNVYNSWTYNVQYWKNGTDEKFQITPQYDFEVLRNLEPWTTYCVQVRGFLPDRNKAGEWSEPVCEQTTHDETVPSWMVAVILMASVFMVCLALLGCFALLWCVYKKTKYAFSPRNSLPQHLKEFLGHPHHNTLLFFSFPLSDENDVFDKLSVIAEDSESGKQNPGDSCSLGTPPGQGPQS

“recombinant wild type human IL-10 (from UniProt P22301 19-178) (ligand)” had an EC50 [nM] pSTAT3 induction, primary monocytes of 0.017 nM; an EC50 [nM] pSTAT3 induction, primary monocytes, Donor 1 of 0.029 nM; an EC50 [nM] pSTAT3 induction, primary monocytes, Donor 2 of 0.019 nM; an EC50 [nM] pSTAT3 induction, primary monocytes, Donor 3 of 0.021 nM.
